Data as given in the nanobody polyreactivity screen of Harvey et al. (2022).

Experiment: yeast display, Sf9 membrane polyspecificity reagent, FACS + sequencing; frameworks hold sequencing errors
Procedure, shortened: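 Nanobodies came from a synthetic yeast display library in Saccharomyces cerevisiae BJ5465, induced with galactose for 36–48 hours and stained for 1 hour at 4 °C with 10% biotinylated, detergent-solubilized Sf9 membrane reagent. Cells were enriched on streptavidin microbeads and then FACS-sorted, with low and high (top ~1%) gates set on anti-HA fluorescence for expression and streptavidin fluorescence for reagent binding. Each polyreactivity label reflects the gate a clone came from. Genes were amplified by colony PCR, sequenced by MiSeq 2 × 250 and filtered by CDR length.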

| Sequence | polyreactivity (PSR sort gate) |
| --- | --- |
| QVQLGESGGGLVQAGGSLRLSCAASGRTFYINTMGWYRQAPGKEREFVAAISSGGGRTYYADSVKGRFTISRDNAKNTVYLQMNSLKPEDTAVYYCAAYLGGAEDTYRFGYWGQGTQVTVSS | high polyreactivity |
| QVQLVESGGGLVQAGGSLRLSCAASGGIFDSYAMGWYRQAPGKERELVAAISRSGSTNYADSVKGRFTISRDNAKNTVYLQMYSLKPEDTAVYYCAASVRGIRYDYWGQGTQVTVSS | low polyreactivity |
| QVQLVESGGGLVQAGGSLRLSCAASGIIFWYNAMGWYRQAPGKERELVASISTGGRTYYADSVKGRFTISRDNAKNTVYLQMNSLKPEDTAVYYCAAASRVGFLYCYWGQGTQVTVSS | low polyreactivity |
| QVQLVESGGGLVQAGGSLRLSCAASGFIFSGYAMGWYRQAPGKERELVAAISTRGGRTYYADSVKGRFTISRDNAKNTVYLQMNSLKPEDTAVYYCAADSLYPELDYWGQGTQVTVSS | high polyreactivity |
| QVQLVESGGGLVHAGGSLRLSCAASGFIFYYNAMGWYRHAPGKERELVAGISRSAGSTYYADSVKGRFTISRDNAKNSVYLQMNSLKPEDTAVDYCAARYLSYITGTSYYWGQVTQVTVSS | low polyreactivity |
| QVQLVESGGGLVQAGGSLRLRCAASGYIIKYNAMGWYRQAPGKERELVAAISSIGGRTYYADSVKGRFTISRDNAKNTVYLQMNSLKPEDTAVYYCNAVGGRYTGWRYDYWGQGPQVTVSS | high polyreactivity |
| QVQLVESGGGLVQAGGSLRLSCAASGSTFTYYAMGWYRQAPGKERELVAAIRNGGSTNYADSVKGRFTISRDNAKNTVYFQMNSLKPEDTAVSYCAADQYYYTQPCDMDYWGQGTQVTVSS | high polyreactivity |
| QVQLVESGGGLVQAGGSLRLSCAASGRTFHYNAMGWYRQAPGKERELVAAITRSGGSTYYADSLKGRFTISRVNAKNTVYLQMNSLKPEDTAVYYCAAGWRSVSVRYYGPSDYWGQGTQVTVSS | low polyreactivity |
| QVQLVESGGGLVQAGGSLRLSCAASGSTFVVNAMGWYRQAPGKERELVAAITQDGDGTYYADSVKGRFTISRDNAKNTVYLQMNSLKPEDTAVYYCAAYPFYGPYDEFDYWGQGTQVTVSS | low polyreactivity |
| QVQLVESGGGLVQAGGSLRLSCAASGRILLYNAMGWYRQAPGKERELVAAISRSGGSTYYADSVKGRFTISRDNAKNTVYLQMNSLKPEDTAVDYCAAQHGYTRYYYWGQGTQVTVSS | high polyreactivity |
| QVQLVESGGGLVQAGGSLRLSCAASGSTFRYNAMGWYRQAPGKERELVAAISSGSSTNYADSVKGRFTISRDNEKNTVYFQMNSLKPVDTAVYYCAAQPGYYDDFYYWGQGTQVTVSA | low polyreactivity |
| QVQLVESGGGLVQAGGSLRLSCAASGSIFYVYAMGWYRQAPGNERELVADITTRDGDTYYADSVKGRFTISRDNAKNTVYFQMNSLKPEDTAVYYCAADLNAYPQRAYDYWGQGTQVTVSS | low polyreactivity |
| QVQLVESGGGLVQAGGSLRLSCAASGFIFGYYTMGWYRQAPGKERELVAGISYSGGSTYYADSVKGRFTISRDNAKNTVYLQMNSLKPEDTAVYYCNRADYRASYSGQGSYDYWGQGTQVTVSS | high polyreactivity |
| QVQLVESGGGLVQAGGSLRLSCAASGNTFRWYAMGWYRQAPGKERELVATISRRGGITYYADSVKGRFTISRDNAKNTVYFQMNSLKPEDTAVYYCAAYSGSGLGAYDYWGQGTQVTVSS | high polyreactivity |
| QVQLVESGGGLVQAGGSLRLSCAASGRTSRDYAMGWYRQAPGKERELVAAIRWRGVSTYYADSVKGRFTISRDNAKNTVYLQMNSLKPEDTAVYYCAKRESVSTSAGKGAMDSWGQGTQVTVSS | high polyreactivity |
| QVQLVESGGGLVQAGGSLRLSCAASGFIFSNYAMGWYRQAPGKERELVARISSSGGSTYYADSVKVRFTISRDIAKNTVYLQMNSLKPEVTAVYYCAAGFNLPAWGWAYYYWGQGTQVTVSS | high polyreactivity |
| QVQLVESGGGLVQAGGSLRLSCAASGRNFCNYAMGWYIQAPGKERELVAVIRFSDGSTYYADSVKGRFTISRDNAKNTVYLQMNSLKPEDTAVYYCAAKGPRRWGSGFDYWGQGTQVTVSS | low polyreactivity |
| QVQHVESGGGLVQAGCSLRLSCAASGSIFSSYAMGWYRQAPGKERELVAAISQSGGDTYYADSVKGRFKISRDNAKNTVYLQMNSLKPEDTAVYYCAASVWFYPMDYWGQGTQVTVSS | low polyreactivity |
| QVQLVESGGGLVQAGGSLRLSCAASGFIFYPYAMGWYRQAPGKERELVASIYSGGRTYYADSVKGRFTISRDNAKNTVYLQMNSLKPEDTAVYYCNARSRYFGYDYWGQGTQVTVSS | high polyreactivity |
| QVQLVESGGGLVQAGGSLRLTCAATGRTFYNGMGWYRQAPGKERELVAAISRGGSTYYADSVKGRFTISRDNAKNTFYLQMTSLKPEDTAVYYCAIDQSRYVYVTLRGGYWGLGTQVTVSS | low polyreactivity |
| QVQLVESGGGLVQAGGSLRLSCAASGRIFYVNAMGWYRQAPGKERELVAAIRSAGGTYYADSVKGRFTISRDNAKNTVYLEMNWLNPEDSAVYYCNADASYREYRLYLIEMDYLGQGTQVTVSS | high polyreactivity |
| QVQLVESGGGLVQAGGSLRLSCAASGSTLRGYTMGWYRQAPGKERELVAAISWSGASTYYADSVKGRFTISRDNAKNTVYLQMNSLKPEDTAVYYCNRAGRYVREYTVDYWGQGTQVTVSS | high polyreactivity |

| Sequence | polyreactivity (PSR sort gate) |
| --- | --- |
| QVQLVETGGGLVQAGGSLRLSCDASGSTFVRYVMGWYRQAPGKERELVAAISRRGGSTYYADSVKGRFTISRANAKNTVYLQMNSLKPEDNAVYYCAGRGGRYFPYHGTIRYDYWGQCTQVTVSS | high polyreactivity |
| QVQLVESGGGLVQAGGSLRLSCAASGITFWVYAMGWYRQSPGKESELVATISRSGGRTYYADSVKGRFTISRDNAKTTVYLQMNSLKPEDTAVYYCAARYRNVLGYDYDFWGQGTQVTVSS | high polyreactivity |
| QVQLVESGGGLVQAGGSLRLSCAASGSTFYVYDMGCYRQAPGKEREWVAAISSGAGSTYYADSVKGRFTISRDNAKNTVYLQMNSLKRKIPRSITALLFTVNGGGSRSHDYWAQGTQVTVSS | low polyreactivity |
| QVQLVESGGGLVQAGGSLRLSCAASGSIITHNTMGWYRQAPGKERELVDSIDSGASTNYADSVKGGFTISRDNAKNTVYLQMNSVKPEDTAVYYCAADVAKFRYRDDYWGQGTQVTVAS | low polyreactivity |
| QVQLVESGGGLVQAGGSLRLSCAASGSTFVNYVMGWYRQAPGKERELVAAISRRGTSTRYADSVKGRFTISRDNAKNTVYFQMNSLKPEDTAVYFCAATRYVGVTGYGYWGLGTQVTVSS | high polyreactivity |
| QVQLVESGGGLVQAGGSLRLSCAASGITFKYYAMGWYRQAPGKERELVAAITSGTRTNYADSVKGRFTISRDNAKNTVYLQMNSLKPEDTAVYYCAKVGSWYTSHRFGYWGHGTQVTVSS | high polyreactivity |
| QVQLVESGGGLVHAGGSLRLSCAASGFTFGGYALGWYRQAPGKERELVAAITGSGGNTFYADSVKGRFTISRDNAKNTVYLQMNSLKPEDTAVYYCAKTWYPWSRYGYYRRYDSWGQGTQVTVSS | low polyreactivity |
| QVQLVESGGGLVQAGGSLRLSFAASGSTFRRYDMGWYRQAPGKERELVADISDRGSRTYYADSVKGRFTISRDNAKKTVYFQMNSLEPEYTAVYYCAAEAVGNTSPGDYWGQGTQVTVSS | high polyreactivity |
| QVQLVESGGGLVQAGGSLRLSCAASGSIFSKYAMGWYRQAAGKERELVAGISCSGGSTYYADSVNGRFTISRDNAQITVYLQINSLKPEDTAVYYCAVGIPYRGRQGYYGYYSYDYWGQGTHVTVSS | high polyreactivity |
| QVQLVESGGGLVQAGGSLRLSCAASGITFWGYAMGWYRQAPGKEREFVARINWSGGRTYYAESVKGRFTISRDNAKNTVYLQMNSLKPEDTAVYYCNVVLRSVVSGDYWVQGTQVTVSS | high polyreactivity |
| QVQLVESGGGLVQAGGSLRLSCAASGSIFSFYAMGWYRQAPGKERELVADISLTTDSTYADSVKGRFTISRDNAKNTVYLQMNSLKPEDTAVYYCAADGSNWEYDYWGQGTQVTVSS | low polyreactivity |
| QVQLVESGGGLVQAGGSLRLSCAASGRIFRYYAMGWYRQAPGKERELVAAINSGGSTKYADSVKGRFTISRDNAKNTVYLQMNSLKPEDTAVYYCAAVYTPDSRYDYWGQGTQVTVSS | high polyreactivity |
| QVQLVESGGGLVQAGGSLRLSCAASGRTFRGNVMGWYRQAPGKEREFVAAITKSDGSTYYADSVKGRFTISRDNAKNTVYLQMNSLKPEDTAVYYCAARTARTGWPWFRYDYWGQGTQVTVSS | low polyreactivity |
| QFQLVESGGGLVQAGGSLRLSCAATGSIFHYYAMGWYRHAPGKERELVAAINSSGGSRSYYADSVKGRFTISRDNAKNTVFLQMNSLKPVDTAVYYCAAEYRVVWRAYDYWGKGTQVTVSS | low polyreactivity |
| QVQLVESGGGLVQAGGSLRLSCAASGLTYKYYAMGWYRQAPGKERELVARISRGGNTNYADSVKGRFTISRDNAKNTVYLQMNSVKPEDTAVFYCAATVRVYDYWGQGTQVSVSS | high polyreactivity |
| QVQLVESGGGLVQAGGSLRLSSAASGRTFFINAMGWYRQAPGKERDLVATITSGGITNYADSVKGRFTISRDNAKNTDYLQMNSLKPEDTAVYYCAVRWYGKYSGVRYYYWGQGTQVTVSS | high polyreactivity |
| QVQLVESGGGLVQAGGSLRLSCAASGRTFDAYAMGWYRQAPGKERELVATITSGGGTYYADSVKGRFTISRDNAKNTVYLQMNSLKPEDTAVYYCNISYVVSRKYDYWGQGTQVTVSS | low polyreactivity |
| QVQLVESGGGLVQAGGSLRLSCAASGGISMDNVMGWYRQAPGKERELVAAISKSGGRTFYADSVKGRFTISRDNAKNTVYLQMNSLKPEDTAVYYCAKLYKSKPYWYEHEYWGQGTQVTVSS | high polyreactivity |
| QVQLVESGGCLVQAGGSLRLSCAASGRIFRDKAMGWYRQAPGKEREFVARITISTGTTYYADSVKGRFTISRDNAKNTGYLQKNSLKPADTAVYYCAALYTDSYLTSPVSYRYDYWGQGTQVSVSS | low polyreactivity |
| HVQRVESGGGLVQAGGSLRLSCAASGLIFVRYAMGWYRQAPGKERELVAAITTGGRTYYADSVKGRFTISRDNAKNTVYLQMNSLKPEDTAVYDCAASRSTYRASRPGTTFNYWGQGTQVTVSS | high polyreactivity |
| QVQLVESGGGLVQAGGSLRLSCAASGRISPVYAMGWYRQAPGKERELVAAITSGGSTNYADSVKGRFTISRDNAQNTVYLQMNSLKPEDTAVYYCAVEGFSSAAYDFEYWGQGTQVTVSS | high polyreactivity |
